Measured values: patent US20170349625A1

Tests used:
[1] = tested on: T1, 5,6-carboxyfluorescein labeled Tub-tag peptide (CF-Tub-tag, peptide 13)
T1 sequence: VDSVEGEGEEEGEE

[2] = molecular target: GBP4-Tub-tag (GFP-specific nanobody GBP4 with the Tub-tag sequence fused to its C-terminus); experiment: cell-based or functional assay
Chain of GBP4-Tub-tag (GFP-specific nanobody GBP4 with the Tub-tag sequence fused to its C-terminus) (heavy, as listed by the source): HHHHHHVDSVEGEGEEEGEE

Substance	conjugate yield after 120 min at 37 C, 3-N3-L-tyrosine (3), TTL:peptide 1:200, isocratic HPLC [1]	conjugate yield after 120 min at 37 C, 3-formyl-L-tyrosine (1), TTL:peptide 1:200, isocratic HPLC [1]	C-terminally modified GBP4 (3-N3-L-tyrosine incorporation followed by SPAAC to DBCO-biotin), 1:10 TTL/GBP4, 37 C, one hour [2] [%]	conversion of GBP4 (3-N3-L-tyrosine incorporation followed by SPAAC to DBCO-biotin), 1:5 TTL/GBP4, 37 C, one hour [2] [%]	conversion of GBP4, 1:5 TTL/GBP4, three hours [2] [%]	conversion of GBP4, 1:10 TTL/GBP4, three hours [2] [%]
tubulin tyrosine ligase (TTL, Canis lupus)	After 120 min of incubation at 37 °C the conjugate yield with 1 and 3 was 63% and 80%, respectively	After 120 min of incubation at 37 °C the conjugate yield with 1 and 3 was 63% and 80%, respectively				
tubulin tyrosine ligase (TTL, Canis lupus) (enzyme)			71	82	99	88
